According to publication PMC3280255:

Target: FUD, a 56-residue recombinant polypeptide based on the Functional Upstream Domain of the F1 adhesin of Streptococcus pyogenes (Streptococcus pyogenes)
Assay: ELISA; competitive enzyme-linked assay: high binding plates coated overnight at 4°C with 10 µg/mL FN; 0.3 nM biotinylated FUD with increasing concentrations of soluble 70K proteins; binding relative to no competitor

Substance	fold decrease in ability to compete, against wildtype 70K
70K I150/242A (Ile-to-Ala mutations in the IGD motifs of 3FNI and 5FNI) (domain or fragment)	2 fold
70K I480/572A (Ile-to-Ala mutations in the IGD motifs of 7FNI and 9FNI) (domain or fragment)	2 fold
